From paper PMC12859505

Experiments:
[1] = biological target: HA- and RLuc8-tagged CXCR5 (HA-CXCR5-Rluc8) in ΔQ-GRK HEK293 cells (GRK2/3/5/6 deleted; not phosphorylated by GRKs) (UniProt P32302)
[2] = biological target: HA- and RLuc8-tagged CXCR5 (HA-CXCR5-Rluc8), CXCL13-stimulated, in cells that express GRKs (GRK-phosphorylated) (UniProt P32302)

- potency (EC50) of CXCL13 (1-100 nM) for G protein activation by FLAG-CXCR5 in ΔQ-GRK HEK293 cells: loss of BRET between Gαi1-Rluc8 and Gβ3γ9-GFP2 (TRUEPATH), area under the curve [1]: 850 pM
- potency (EC50) of CXCL13 (1-100 nM) for G protein activation by FLAG-CXCR5 in WT HEK293 cells: loss of BRET between Gαi1-Rluc8 and Gβ3γ9-GFP2 (TRUEPATH), area under the curve [2]: 1000 pM
B1: CXCL13 (ligand)
chain: VLEVYYTSLRCRCVQESSVFIPRRFIDRIQILPRGNGCPRKEIIVWKKNKSIVCVDPQAEWIQRMMEVLRKRSSSTLPVPVFKRKIP
